The chains are these.
B1: LINE1-mini (parent)
chain: GGCAGAGCUCAACACAGCGUGGCAAAGUGGCUGUGGCUAGACUGCC

The data set covers variants of B1. Put plainly: self-cleavage, relative activity (ratio to wild type); higher = more cleavage; in vitro, sequencing; the parent is a self-cleaving ribozyme.
For the variant C8U G33A, the self-cleavage was found to be 0.15.
For C8U G33U the value was 0.16; for C8U G33C, 0.07.
As for U9A C18U, the figure is 0.11; as for U9A C18A, 0.1.
As for U9A C18G, the figure is 0.09; as for C8G U28C, 0.46.
Take C8G U28A: the self-cleavage was found to be 0.05.
As for C8G U28G, the figure is 0.06.
C8U A41C: the self-cleavage stood at 0.16.
For C8U A41U the value was 0.47; for C8U A41G, 0.2.
As for U9A A39C, the figure is 0.17.
As for U9A A39G, the figure is 0.21; as for U9A A39U, 0.1.
Take U9A A41G: the self-cleavage was 0.05.
For U9A A41U, the self-cleavage is 0.28.
As for U9A A41C, the figure is 0.08; as for U9A A14C, 0.04; as for U9A A14G, 0.17.
Turning to U9A A14U, the self-cleavage was 0.11.
As for U9A U32G, the self-cleavage came out at 0.19.
Turning to U9A U32A, the self-cleavage stood at 0.11.
As for U9A U32C, the self-cleavage was 0.13.
For C8U G27U the value was 0.14.
In the case of C8U G27A, the self-cleavage turned out to be 0.14.
For C8U G27C the value was 0.11; for C8U U38G, 0.04; for C8U U38C, 0.22.
C8U U38A: the self-cleavage was found to be 0.27.
For the variant C8G G36U, the self-cleavage worked out at 0.07.
In the case of C8G G36A, the self-cleavage is 0.18.
For C8G G36C, the self-cleavage was 0.08.
As for U9A G21C, the self-cleavage is 0.06.
As to U9A G21A, the self-cleavage is 0.3.
For U9A G21U the value was 0.15; for U9A C13G, 0.23.
Consider U9A C13U, for which the self-cleavage worked out at 0.29.
As for U9A C13A, the self-cleavage is 0.2.
As for U9A U28A, the figure is 0.17.
For U9A U28C the value was 0.1.
With U9A U28G, the self-cleavage is 0.15.
Regarding U9A G40A, the self-cleavage is 0.19.
For U9A G40U the value was 0.1.
As for U9A G40C, the figure is 0.08.
U9A A26G: the self-cleavage was 0.09.
For U9A A26C the value was 0.23.
As for U9A A26U, the figure is 0.21; as for U9A C23A, 0.14; as for U9A C23U, 0.21.
As for U9A C23G, the self-cleavage is 0.16.
As for C8U U28C, the figure is 0.2; as for C8U U28G, 0.13; as for C8U U28A, 0.19.
As for U9A U38C, the figure is 0.12; as for U9A U38A, 0.08.
For U9A U38G the value was 0.22; for U9A A16C, 0.08.
Take U9A A16U: the self-cleavage is 0.06.
U9A A16G: the self-cleavage stood at 0.11.
For the variant U9A C37A, the self-cleavage worked out at 0.21.
As for U9A C37U, the figure is 0.12; as for U9A C37G, 0.11; as for C8G C18U, 0.1.
For C8G C18A the value was 0.04; for C8G C18G, 0.08.
For C8U A16G the value was 0.16; for C8U A16C, 0.13; for C8U A16U, 0.13.
With C8U C31G, the self-cleavage was 0.17.
On to C8U C31U, for which the self-cleavage turned out to be 0.14.
Regarding C8U C31A, the self-cleavage was found to be 0.21.
For U9A G27U, the self-cleavage was determined as 0.14.
As for U9A G27C, the figure is 0.11; as for U9A G27A, 0.1.
For C8G G29C, the self-cleavage stood at 0.04.
As to C8G G29A, the self-cleavage was determined as 0.06.
Turning to C8G G29U, the self-cleavage is 0.11.
As to C8U C42U, the self-cleavage was determined as 0.17.
Take C8U C42A: the self-cleavage turned out to be 0.11.
As for C8U C42G, the figure is 0.13.
For C8U G44C the value was 0.08; for C8U G44A, 0.39; for C8U G44U, 0.35.
Regarding C8G C13G, the self-cleavage turned out to be 0.04.
For C8G C13U the value was 0.18; for C8G C13A, 0.11.
Regarding U9A G36U, the self-cleavage was 0.1.
As for U9A G36C, the figure is 0.06.
U9A G36A: the self-cleavage came to 0.34.
Turning to C8U G29C, the self-cleavage stood at 0.1.
Regarding C8U G29U, the self-cleavage was 0.46.
Consider C8U G29A, for which the self-cleavage was determined as 0.21.
Consider U9A A11U, for which the self-cleavage amounted to 0.03.
For the variant U9A A11G, the self-cleavage is 0.03.
U9A A11C: the self-cleavage came out at 0.02.
For U9C A11C the value was 0.02.
On to C8G C10A, for which the self-cleavage was determined as 0.03.
For C8G C10U the value was 0.06; for C8G C10G, 0.02; for C8G A26G, 0.07.
As for C8G A26C, the figure is 0.14.
For C8G A26U the value was 0.11; for C8G G40U, 0.09; for C8G G40A, 0.13.
As for C8G G40C, the self-cleavage came out at 0.09.
In the case of C8U A26G, the self-cleavage stood at 0.29.
For C8U A26C the value was 0.21; for C8U A26U, 0.36.
C8U G17U: the self-cleavage amounted to 0.14.
As for C8U G17C, the figure is 0.16.
For C8U G17A the value was 0.15; for U9A A24G, 0.2; for U9A A24U, 0.33.
For U9A A24C the value was 0.56; for U9A C42A, 0.06; for U9A C42U, 0.15.
Take U9A C42G: the self-cleavage was 0.13.
Take U9A G17C: the self-cleavage was found to be 0.06.
As for U9A G17A, the figure is 0.07; as for U9A G17U, 0.13; as for C8U U32C, 0.12.
As for C8U U32A, the figure is 0.1; as for C8U U32G, 0.1.
As for C8U C13A, the figure is 0.5.
For the variant C8U C13U, the self-cleavage was 0.81.
C8U C13G: the self-cleavage turned out to be 0.29.
For C8U C10G, the self-cleavage came to 0.02.
Take C8U C10A: the self-cleavage turned out to be 0.03.
As for C8U C10U, the figure is 0.08; as for C8G U34C, 0.04; as for C8G U34A, 0.05.
For C8G U34G the value was 0.08.
Turning to U9A G29A, the self-cleavage is 0.2.
For U9A G29U the value was 0.15; for U9A G29C, 0.05; for C8G U20G, 0.09.
C8G U20A: the self-cleavage was determined as 0.08.
For C8G U20C the value was 0.08; for C8U A39U, 0.09.
For C8U A39C the value was 0.2; for C8U A39G, 0.05; for C8U G36C, 0.27.
For C8U G36U the value was 0.2; for C8U G36A, 0.77; for C8G G17C, 0.04.
With C8G G17A, the self-cleavage stood at 0.08.
For C8G G17U the value was 0.07; for C8G C42G, 0.06; for C8G C42A, 0.05.
For the variant C8G C42U, the self-cleavage was found to be 0.09.
For C8U C18U the value was 0.14; for C8U C18G, 0.23; for C8U C18A, 0.18.
As for C8G C46G, the figure is 0.11; as for C8G C46U, 0.09; as for C8G C46A, 0.05.
For U9A A25C the value was 0.07; for U9A A25U, 0.15; for U9A A25G, 0.17.
Take C8G C15G: the self-cleavage came to 0.05.
As for C8G C15U, the figure is 0.1; as for C8G C15A, 0.11; as for U9C, 0.04.
On to U9A, for which the self-cleavage came to 0.17.
For C8G C37G the value was 0.09; for C8G C37A, 0.04.

(Values after the RNAGym collection of RNA variant scans (doi:10.7554/elife.90254).)
